Earlier results, collected in paper PMC3437440.

Molecular target: IgG1 Fc Fc (Homo sapiens) [IgG part: P01857]

Chain of FcγRIIIa (Val158 variant) (P08637 17-254, change not shown): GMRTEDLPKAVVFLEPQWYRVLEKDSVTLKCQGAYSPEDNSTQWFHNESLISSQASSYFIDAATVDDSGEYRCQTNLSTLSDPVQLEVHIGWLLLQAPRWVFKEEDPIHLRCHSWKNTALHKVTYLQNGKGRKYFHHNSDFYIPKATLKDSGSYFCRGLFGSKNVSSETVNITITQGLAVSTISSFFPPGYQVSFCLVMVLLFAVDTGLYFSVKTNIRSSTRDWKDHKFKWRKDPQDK

Kd: 0.1 µM
Substance: FcγRIIIa (Val158 variant) (from UniProt P08637)
